The target of experiment [1] is T1, 4H797-bH.
T1 chain: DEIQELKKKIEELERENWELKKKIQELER
The experiment can be described thus: two-hybrid library CCNG1.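 Also: natural log of median RNA to DNA barcode read ratio; higher means stronger binding.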

Experiment [2] concerns the target T2, 4H3010-bH.
T2 chain: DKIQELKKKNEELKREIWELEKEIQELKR
The experiment can be described thus: two-hybrid library CCNG1.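 Also: natural log of median RNA to DNA barcode read ratio; higher means stronger binding.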

Experiment [3] has as its target T3, 4H457-bH.
T3 chain: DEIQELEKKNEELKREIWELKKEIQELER
In words: two-hybrid library CCNG1.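 Also: natural log of median RNA to DNA barcode read ratio; higher means stronger binding.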

Experiment [4] has as its target T4, 4H3427-bH.
T4 chain: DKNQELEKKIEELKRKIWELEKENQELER
The experiment can be described thus: two-hybrid library CCNG1.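 Also: natural log of median RNA to DNA barcode read ratio; higher means stronger binding.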

For experiment [5], the target named is T5, 4H346-bH.
T5 chain: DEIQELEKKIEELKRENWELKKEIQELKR
The experiment can be described thus: two-hybrid library CCNG1.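 Also: natural log of median RNA to DNA barcode read ratio; higher means stronger binding.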

The target of experiment [6] is T6, 4H575-bH.
T6 chain: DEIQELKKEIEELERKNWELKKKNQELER
In words: two-hybrid library CCNG1.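 Also: natural log of median RNA to DNA barcode read ratio; higher means stronger binding.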

The target in experiment [7] is T7, 4H968-bH.
T7 chain: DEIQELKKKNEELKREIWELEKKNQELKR
The experiment can be described thus: two-hybrid library CCNG1.

In experiment [8] the target is T8, 4H3112-bH.
T8 chain: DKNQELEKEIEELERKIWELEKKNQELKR
The experiment can be described thus: two-hybrid library CCNG1.

In experiment [9] the target is T9, 4H4073-bH.
T9 chain: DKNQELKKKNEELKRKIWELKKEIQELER
In words: two-hybrid library CCNG1.

Experiment [10] has as its target T10, 4H953-bH.
T10 chain: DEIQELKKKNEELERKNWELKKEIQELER
In words: two-hybrid library CCNG1.

Experiment [11] addresses T11, 4H3926-bH.
T11 chain: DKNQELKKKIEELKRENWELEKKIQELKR
In words: two-hybrid library CCNG1.

Experiment [12] has as its target T12, 4H780-bH.
T12 chain: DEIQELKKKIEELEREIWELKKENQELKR
In words: two-hybrid library CCNG1.

For experiment [13], the target named is T13, 4H2702-bH.
T13 chain: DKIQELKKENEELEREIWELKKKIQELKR
In words: two-hybrid library CCNG1.

For experiment [14], the target named is T14, 4H855-bH.
T14 chain: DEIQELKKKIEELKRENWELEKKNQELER
The experiment can be described thus: two-hybrid library CCNG1.

Experiment [15] concerns the target T15, 4H683-bH.
T15 chain: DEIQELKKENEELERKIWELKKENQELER
In words: two-hybrid library CCNG1.

Experiment [16] has as its target T16, 4H754-bH.
T16 chain: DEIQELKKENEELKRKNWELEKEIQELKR
The experiment can be described thus: two-hybrid library CCNG1.

In experiment [17] the target is T17, 4H918-bH.
T17 chain: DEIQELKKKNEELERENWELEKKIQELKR
The experiment can be described thus: two-hybrid library CCNG1.

Experiment [18] has as its target T18, 4H953-AA.
T18 chain: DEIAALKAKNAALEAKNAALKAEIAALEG
In words: two-hybrid library CCmax. Conditions: mean of both orientations.

Experiment [19] has as its target T19, 4H687-AA.
T19 chain: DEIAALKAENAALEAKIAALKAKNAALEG
In words: two-hybrid library CCmax. The following applies: mean of both orientations.

The target of experiment [20] is T20, 4H568-AA.
T20 chain: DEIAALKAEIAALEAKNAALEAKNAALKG
The experiment can be described thus: two-hybrid library CCmax. Conditions: mean of both orientations.

Experiment [21] concerns the target T21, 4H717-AA.
T21 chain: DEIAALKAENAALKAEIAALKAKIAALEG
The experiment can be described thus: two-hybrid library CCmax. The following applies: mean of both orientations.

The target in experiment [22] is T22, 4H967-AA.
T22 chain: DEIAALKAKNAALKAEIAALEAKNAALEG
In words: two-hybrid library CCmax. Conditions: mean of both orientations.

The target in experiment [23] is T23, 4H918-AA.
T23 chain: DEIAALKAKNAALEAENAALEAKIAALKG
In words: two-hybrid library CCmax. The following applies: mean of both orientations.

Experiment [24] deals with T24, 4H4001-AA.
T24 chain: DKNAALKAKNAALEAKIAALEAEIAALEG
The experiment can be described thus: two-hybrid library CCmax.

For experiment [25], the target named is T25, 4H883-AA.
T25 chain: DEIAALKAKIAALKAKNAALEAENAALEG
The experiment can be described thus: two-hybrid library CCmax. Conditions: mean of both orientations.

Experiment [26] deals with T26, 4H797-AA.
T26 chain: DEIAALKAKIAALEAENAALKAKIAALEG
In words: two-hybrid library CCmax. The following applies: mean of both orientations.

B1: 4H2702-bH (peptide)
chain: DKIQELKKENEELEREIWELKKKIQELKR
Take B1: the interaction score in experiment [1] was -0.247; in experiment [2], 1.37; in experiment [3], 1.57; in experiment [4] it was 0.468; in experiment [5] it was 0.405; in experiment [6], -2.01. In addition, the interaction score in experiment [7] was 0.8; in [8] it was 0.549; in experiment [9], 0.92; in [10] it was 0.896; in [11], 0.525; in [12] it was -0.871. Also, the interaction score in experiment [13] is 1.55; in [14], -0.0377; in experiment [15] it was -0.558; in experiment [16], -0.588; in [17], -0.77.

B2: 4H4001-AA (peptide)
chain: DKNAALKAKNAALEAKIAALEAEIAALEG
Turning to B2, the interaction score is -1.79 in [18]; -2.04 in [19]; -1.85 in experiment [20]; -1.32 in experiment [21]; -1.57 in experiment [22]; -0.824 in experiment [23]. Besides, the interaction score is -1.19 in experiment [24], -1.75 in [25] and -1.79 in experiment [26].

(Values after paper PMC10397247.)
